Results taken from US20190111032A1 (GEORGIA STATE UNIVERSITY RESEARCH FOUNDATION, published 2019).

Molecular target: the molecule itself
Assay: size exclusion chromatography and non-reducing SDS-PAGE
Experimental: hCaSR-ECD (from residue Tyr²⁰ to Phe⁶¹²) (FIG. 1) was expressed in suspension culture of HEK293S (GnTI-) cells and purified from the culture medium by Ni²⁺-NTA chromatography as previously described. To deglycosylate the purified protein, hCaSR-ECD was incubated with recombinant endoglycosidase F1 (Endo F1) at a 1:100 mass ratio of Endo F1 to hCaSR-ECD²⁶ overnight at 4° C. in 10 mM Tris buffer, pH 7.4. Further separation of hCaSR-ECD from Endo F1 was achieved by size exclusion chromatography (SEC) in 10 mM HEPES (pH 7.3) buffer. hCaSR-ECD forms a homodimer, as determined by the elution volume observed in SEC.

B1: extracellular domain of the human calcium-sensing receptor (hCaSR-ECD), residues Tyr20 to Phe612 (receptor, UniProt P41180 20-612, looked up)
chain: YGPDQRAQKKGDIILGGLFPIHFGVAAKDQDLKSRPESVECIRYNFRGFRWLQAMIFAIEEINSSPALLPNLTLGYRIFDTCNTVSKALEATLSFVAQNKIDSLNLDEFCNCSEHIPSTIAVVGATGSGVSTAVANLLGLFYIPQVSYASSSRLLSNKNQFKSFLRTIPNDEHQATAMADIIEYFRWNWVGTIAADDDYGRPGIEKFREEAEERDICIDFSELISQYSDEEEIQHVVEVIQNSTAKVIVVFSSGPDLEPLIKEIVRRNITGKIWLASEAWASSSLIAMPQYFHVVGGTIGFALKAGQIPGFREFLKKVHPRKSVHNGFAKEFWEETFNCHLQEGAKGPLPVDTFLRGHEESGDRFSNSSTAFRPLCTGDENISSVETPYIDYTHLRISYNVYLAVYSIAHALQDIYTCLPGRGLFTNGSCADIKKVEAWQVLKHLRHLNFTNNMGEQVTFDECGDLVGNYSIINWHLSPEDGSIVFKEVGYYNVYAKKGERLFINEEKILWSGFSREVPFSNCSRDCLAGTRKGIIEGEPTCCFECVECPDGEYSDETDASACNKCPDDFWSNENHTSCIAKEIEFLSWTEPF
modifications: N-glycans trimmed with endoglycosidase F1 before SEC and crystallization (expressed in HEK293S GnTI- cells)
notes: range 20-612; This entry is one protomer; also called ECD of CaSR
binding result: binds
